Results as given in US20260116944A1, “NOVEL TRIPLE GLP-1/GIP/GLUCAGON RECEPTOR AGONIST AND A PHARMACEUTICAL COMPOSITION FOR PREVENTING OR TREATING OBESITY COMPRISING THE SAME” (HANMI PHARM. CO., LTD., priority 2022, published 2026).
*1 amine or outer side, *2 acyl side, *3 side chain or, on linkers, in order; H or OH if unused. Bridges are numbered along the chain shown (N, C = ends). Where no end group is shown, it is not given here. Side-chain parts run from the residue outwards. [ ]: non-standard residue; d: D form. The star is where a group is joined. C18 diacid = O=C(O)CCCCCCCCCCCCCCCCC(=O)*; γGlu = O=C(O)[C@H](CCC(=O)[*:2])N[*:1]; AEEA = NCCOCCOCC(=O)O; Aib = CC(C)(N)C(=O)O

T1: human GIP receptor (human, UniProt P48546 22-466)
T1 sequence (looked up): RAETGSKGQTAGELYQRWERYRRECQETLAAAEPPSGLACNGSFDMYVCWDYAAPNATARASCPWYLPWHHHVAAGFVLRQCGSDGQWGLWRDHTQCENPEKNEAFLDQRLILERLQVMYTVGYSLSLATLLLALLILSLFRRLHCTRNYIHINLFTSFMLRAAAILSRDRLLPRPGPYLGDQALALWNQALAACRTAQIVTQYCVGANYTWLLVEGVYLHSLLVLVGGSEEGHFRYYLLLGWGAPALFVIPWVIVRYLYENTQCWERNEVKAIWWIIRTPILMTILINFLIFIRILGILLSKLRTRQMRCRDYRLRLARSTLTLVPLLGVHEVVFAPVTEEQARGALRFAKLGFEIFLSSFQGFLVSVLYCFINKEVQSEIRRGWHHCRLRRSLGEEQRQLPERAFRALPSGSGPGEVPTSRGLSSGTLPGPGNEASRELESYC

B1: triple agonist of SEQ ID NO: 8 (peptide)
peptide: Y[Aib]QGTFTSDYSK([AEEA-AEEA-γGlu-C18 diacid])YLDEKRAKEFVQWLLDHHPSSGQPPPS-NH2
modifications: lactam 16-20; N-terminus assumed
SMILES: CC(C)C[C@H](NC(=O)[C@H](Cc1ccc(O)cc1)NC(=O)[C@H](CCCCNC(=O)COCCOCCNC(=O)COCCOCCNC(=O)CC[C@H](NC(=O)CCCCCCCCCCCCCCCCC(=O)O)C(=O)O)NC(=O)[C@H](CO)NC(=O)[C@H](Cc1ccc(O)cc1)NC(=O)[C@H](CC(=O)O)NC(=O)[C@H](CO)NC(=O)[C@@H](NC(=O)[C@H](Cc1ccccc1)NC(=O)[C@@H](NC(=O)CNC(=O)[C@H](CCC(N)=O)NC(=O)C(C)(C)NC(=O)[C@@H](N)Cc1ccc(O)cc1)[C@@H](C)O)[C@@H](C)O)C(=O)N[C@@H](CC(=O)O)C(=O)N[C@H]1CCC(=O)NCCCC[C@@H](C(=O)N[C@@H](CCC(=O)O)C(=O)N[C@@H](Cc2ccccc2)C(=O)N[C@H](C(=O)N[C@@H](CCC(N)=O)C(=O)N[C@@H](Cc2c[nH]c3ccccc23)C(=O)N[C@@H](CC(C)C)C(=O)N[C@@H](CC(C)C)C(=O)N[C@@H](CC(=O)O)C(=O)N[C@@H](Cc2c[nH]cn2)C(=O)N[C@@H](Cc2c[nH]cn2)C(=O)N2CCC[C@H]2C(=O)N[C@@H](CO)C(=O)N[C@@H](CO)C(=O)NCC(=O)N[C@@H](CCC(N)=O)C(=O)N2CCC[C@H]2C(=O)N2CCC[C@H]2C(=O)N2CCC[C@H]2C(=O)N[C@@H](CO)C(N)=O)C(C)C)NC(=O)[C@H](C)NC(=O)[C@H](CCCNC(=N)N)NC(=O)[C@H](CCCCN)NC1=O
B2: triple agonist of SEQ ID NO: 9 (peptide)
peptide: Y[Aib]QGTFTSDYSK([AEEA-AEEA-γGlu-C18 diacid])YLDEKAAKEFVQWLLDHHPSSGQPPPS-NH2
modifications: lactam 16-20; N-terminus assumed
SMILES: CC(C)C[C@H](NC(=O)[C@H](Cc1ccc(O)cc1)NC(=O)[C@H](CCCCNC(=O)COCCOCCNC(=O)COCCOCCNC(=O)CC[C@H](NC(=O)CCCCCCCCCCCCCCCCC(=O)O)C(=O)O)NC(=O)[C@H](CO)NC(=O)[C@H](Cc1ccc(O)cc1)NC(=O)[C@H](CC(=O)O)NC(=O)[C@H](CO)NC(=O)[C@@H](NC(=O)[C@H](Cc1ccccc1)NC(=O)[C@@H](NC(=O)CNC(=O)[C@H](CCC(N)=O)NC(=O)C(C)(C)NC(=O)[C@@H](N)Cc1ccc(O)cc1)[C@@H](C)O)[C@@H](C)O)C(=O)N[C@@H](CC(=O)O)C(=O)N[C@H]1CCC(=O)NCCCC[C@@H](C(=O)N[C@@H](CCC(=O)O)C(=O)N[C@@H](Cc2ccccc2)C(=O)N[C@H](C(=O)N[C@@H](CCC(N)=O)C(=O)N[C@@H](Cc2c[nH]c3ccccc23)C(=O)N[C@@H](CC(C)C)C(=O)N[C@@H](CC(C)C)C(=O)N[C@@H](CC(=O)O)C(=O)N[C@@H](Cc2c[nH]cn2)C(=O)N[C@@H](Cc2c[nH]cn2)C(=O)N2CCC[C@H]2C(=O)N[C@@H](CO)C(=O)N[C@@H](CO)C(=O)NCC(=O)N[C@@H](CCC(N)=O)C(=O)N2CCC[C@H]2C(=O)N2CCC[C@H]2C(=O)N2CCC[C@H]2C(=O)N[C@@H](CO)C(N)=O)C(C)C)NC(=O)[C@H](C)NC(=O)[C@H](C)NC(=O)[C@H](CCCCN)NC1=O

Columns and labels:
Assay in all cases: cell-based or functional assay
human GIP receptor = biological target: T1, human GIP receptor
human GLP-1 receptor = human GLP-1 receptor (human, UniProt P43220 24-463)
human GCG receptor = human GCG receptor (human, UniProt P47871 26-477)
Chain of human GCG receptor (P47871 26-477): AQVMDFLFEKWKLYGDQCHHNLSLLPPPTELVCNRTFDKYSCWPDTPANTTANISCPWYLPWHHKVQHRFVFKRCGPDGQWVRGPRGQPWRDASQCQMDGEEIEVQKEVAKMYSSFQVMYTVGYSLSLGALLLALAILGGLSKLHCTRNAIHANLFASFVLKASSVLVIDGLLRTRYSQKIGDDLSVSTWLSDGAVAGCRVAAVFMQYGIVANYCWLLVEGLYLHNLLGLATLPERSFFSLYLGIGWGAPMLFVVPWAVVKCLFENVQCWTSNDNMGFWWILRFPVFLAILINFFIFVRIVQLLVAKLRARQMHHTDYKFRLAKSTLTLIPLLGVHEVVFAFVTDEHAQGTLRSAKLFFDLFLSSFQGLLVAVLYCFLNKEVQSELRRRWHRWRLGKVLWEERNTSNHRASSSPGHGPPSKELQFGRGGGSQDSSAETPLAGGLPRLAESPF

Binder | In vitro Activity Compared to Native Peptide (%) vs. GIP (relative titer from cAMP EC50) (human GIP receptor) | In vitro Activity Compared to Native Peptide (%) vs. GLP-1 (relative titer from cAMP EC50) (human GLP-1 receptor) | In vitro Activity Compared to Native Peptide (%) vs. Glucagon (relative titer from cAMP EC50) (human GCG receptor)
B1 | 4.89 % of human GIP | 9.68 % of human GLP-1 | 5.89 % of human GCG
B2 | 8.42 % of human GIP | 15 % of human GLP-1 | 0.51 % of human GCG
